Laboratory results: US20210077638A1

Tests used:
[1] = biological target: human MET on EBC-1, NCI-H441 and NCI-H358 cells (human) (UniProt P08581); assay: saturation radioligand binding on EBC-1 cells, 4 C, single-site fit, n=4
[2] = biological target: human MET on EBC-1, NCI-H441 and NCI-H358 cells (human) (UniProt P08581); assay: saturation radioligand binding on NCI-H358 cells, 4 C, single-site fit, n=2
[3] = biological target: human MET on EBC-1, NCI-H441 and NCI-H358 cells (human) (UniProt P08581); assay: saturation radioligand binding on NCI-H441 cells, 4 C, single-site fit, n=4
[4] = biological target: human MET on EBC-1, NCI-H441 and NCI-H358 cells (human) (UniProt P08581); assay: saturation radioligand binding (antibody binding capacity) assay with 89Zr-DFO-Comp1 on EBC-1 cells, 4 C, 45 min, gamma counting; x axis is total antibody dosed, not free
[5] = biological target: human MET on EBC-1, NCI-H441 and NCI-H358 cells (human) (UniProt P08581); assay: saturation radioligand binding (antibody binding capacity) assay with 89Zr-DFO-Comp1 on NCI-H441 cells, 4 C, 45 min, gamma counting; x axis is total antibody dosed, not free

Chain of human MET on EBC-1, NCI-H441 and NCI-H358 cells (human) (P08581 25-1390): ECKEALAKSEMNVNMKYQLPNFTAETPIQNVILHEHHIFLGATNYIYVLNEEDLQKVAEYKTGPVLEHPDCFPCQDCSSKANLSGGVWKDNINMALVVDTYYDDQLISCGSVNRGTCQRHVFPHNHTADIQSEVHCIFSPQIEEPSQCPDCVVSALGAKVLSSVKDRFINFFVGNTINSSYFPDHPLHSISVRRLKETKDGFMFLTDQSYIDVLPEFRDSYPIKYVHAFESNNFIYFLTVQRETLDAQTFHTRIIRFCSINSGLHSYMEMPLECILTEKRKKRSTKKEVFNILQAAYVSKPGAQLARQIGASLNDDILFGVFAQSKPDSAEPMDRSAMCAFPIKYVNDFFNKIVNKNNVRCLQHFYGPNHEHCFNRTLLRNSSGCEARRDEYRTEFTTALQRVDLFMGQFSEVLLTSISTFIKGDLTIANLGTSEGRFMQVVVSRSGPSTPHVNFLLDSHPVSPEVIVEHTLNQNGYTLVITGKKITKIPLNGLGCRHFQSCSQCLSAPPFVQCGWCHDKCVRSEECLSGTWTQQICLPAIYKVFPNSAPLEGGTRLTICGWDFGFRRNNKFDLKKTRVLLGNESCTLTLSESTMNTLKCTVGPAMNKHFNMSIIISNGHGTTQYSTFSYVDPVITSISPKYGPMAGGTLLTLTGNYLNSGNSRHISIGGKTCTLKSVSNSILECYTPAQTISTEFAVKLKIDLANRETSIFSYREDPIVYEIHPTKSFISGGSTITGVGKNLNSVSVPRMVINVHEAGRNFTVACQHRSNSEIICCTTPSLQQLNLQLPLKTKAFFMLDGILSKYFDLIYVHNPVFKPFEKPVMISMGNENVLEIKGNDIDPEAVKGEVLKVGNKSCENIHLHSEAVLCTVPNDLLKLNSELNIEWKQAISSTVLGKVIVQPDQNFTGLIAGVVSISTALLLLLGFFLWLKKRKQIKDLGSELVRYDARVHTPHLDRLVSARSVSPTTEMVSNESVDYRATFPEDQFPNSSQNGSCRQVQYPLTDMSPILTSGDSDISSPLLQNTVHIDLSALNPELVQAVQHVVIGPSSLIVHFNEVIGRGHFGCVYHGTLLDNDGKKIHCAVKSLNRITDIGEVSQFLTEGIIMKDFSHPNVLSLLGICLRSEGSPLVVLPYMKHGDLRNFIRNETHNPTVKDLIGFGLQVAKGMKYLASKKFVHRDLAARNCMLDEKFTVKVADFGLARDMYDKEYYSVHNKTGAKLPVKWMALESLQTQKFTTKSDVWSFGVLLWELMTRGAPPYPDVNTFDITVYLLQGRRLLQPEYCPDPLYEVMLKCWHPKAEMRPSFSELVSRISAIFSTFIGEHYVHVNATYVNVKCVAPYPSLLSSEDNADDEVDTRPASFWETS

B1: 89Zr-DFO-anti-Met single-arm comparator antibody (Comp1; Onartuzumab) (antibody, INN chains, looked up, V domains shown)
VH: EVQLVESGGGLVQPGGSLRLSCAASGYTFTSYWLHWVRQAPGKGLEWVGMIDPSNSDTRFNPNFKDRFTISADTSKNTAYLQMNSLRAEDTAVYYCATYRSYVTPLDYWGQGTLVTVSS
VL: DIQMTQSPSSLSASVGDRVTITCKSSQSLLYTSSQKNYLAWYQQKPGKAPKLLIYWASTRESGVPSRFSGSGSGTDFTLTISSLQPEDFATYYCQQYYAYPWTFGQGTKVEIK
modifications: one-armed monovalent 89Zr-DFO label
Work on B1 yielded an ABC (antibody binding capacity) [1] of 250000 per cell, an ABC (antibody binding capacity) [2] of 21000 per cell and an ABC (antibody binding capacity) [3] of 62000 per cell. The EC50 (read off the curve) [4] was 4 nM and the EC50 (read off the curve) [5] was 3 nM.
